Km data for four proteins are collected here from PMC3741069 (Biochemistry, 2013).

One may read the Km as the substrate concentration at which the rate is half of its maximum.

B1: nitrate reductase (NarB) (Synechococcus elongatus PCC 7942 = FACHB-805; R160Q) (protein)
chain: MIDTAKTLCPYCGVGCGLEAVPPAQPGRATVRDREGTPIWQIRGDRQHPSSQGMVCVKGATVAESVSKSRLKYPMFRASLDDPFTEISWDEALDRLCDRIQQTQADYGKDGICFYGSGQFQTEDYYIAQKLVKGCLGTNNFDTNSQLCMSSAVSAYSLCLGSDGPPACYEDLDLADCLLIVGSNTAECHPILFNRYRKRHKQGGTNLIVVDPRCTPTAEVADLHLALKPGSDVALLNGLGWLLYQMGYVKKDFIANQTEGFEDWLAIIEDYPPQRTAELTGLAVAELVRAADLIASAQRWLSLWSMGVNQSIQGTAKATSLINLHLLTRQIGLPGCGPFSLTGQPNAMGGRETGGLAHLLPGYRKVIDPQHRADVETIWGLPMGSISPQPGRTAWQMIEGLEQGAVGFLWVAATNPAVSLPDVKRAQAALKRSPFTVLQDAYHPTETTTYAHLLLPAAQWSEKTGTMTNSERRVTLCQAFRQPPGEARADWQIFAEVGRRLGFAFDYTDAAAVFAEYVQVTAGRLCDLSGLSHELLAQAGPQQWPFPAGAEPTTESKRLYTKHHFAYADGRARFQPFHHLGVAEPPDDRYPLVLTVGRLYGHWHTQTRTGRIDKINKLHPSAFVEIHPRDADRYNISEGQAVVIRSRRGEGCFPAKVTTAISPGVLFVPMHWGALWGDRTEANALTHPAACPISGEPELKACAVQIEAASSTFTI
B2: nitrate reductase (NarB) (Synechococcus elongatus PCC 7942 = FACHB-805) (protein)
chain: MIDTAKTLCPYCGVGCGLEAVPPAQPGRATVRDREGTPIWQIRGDRQHPSSQGMVCVKGATVAESVSKSRLKYPMFRASLDDPFTEISWDEALDRLCDRIQQTQADYGKDGICFYGSGQFQTEDYYIAQKLVKGCLGTNNFDTNSRLCMSSAVSAYSLCLGSDGPPACYEDLDLADCLLIVGSNTAECHPILFNRYRKRHKQGGTNLIVVDPRCTPTAEVADLHLALKPGSDVALLNGLGWLLYQMGYVKKDFIANQTEGFEDWLAIIEDYPPQRTAELTGLAVAELVRAADLIASAQRWLSLWSMGVNQSIQGTAKATSLINLHLLTRQIGLPGCGPFSLTGQPNAMGGRETGGLAHLLPGYRKVIDPQHRADVETIWGLPMGSISPQPGRTAWQMIEGLEQGAVGFLWVAATNPAVSLPDVKRAQAALKRSPFTVLQDAYHPTETTTYAHLLLPAAQWSEKTGTMTNSERRVTLCQAFRQPPGEARADWQIFAEVGRRLGFAFDYTDAAAVFAEYVQVTAGRLCDLSGLSHELLAQAGPQQWPFPAGAEPTTESKRLYTKHHFAYADGRARFQPFHHLGVAEPPDDRYPLVLTVGRLYGHWHTQTRTGRIDKINKLHPSAFVEIHPRDADRYNISEGQAVVIRSRRGEGCFPAKVTTAISPGVLFVPMHWGALWGDRTEANALTHPAACPISGEPELKACAVQIEAASSTFTI
B3: nitrate reductase (NarB) (Synechococcus elongatus PCC 7942 = FACHB-805; K144Q) (protein)
chain: MIDTAKTLCPYCGVGCGLEAVPPAQPGRATVRDREGTPIWQIRGDRQHPSSQGMVCVKGATVAESVSKSRLKYPMFRASLDDPFTEISWDEALDRLCDRIQQTQADYGKDGICFYGSGQFQTEDYYIAQQLVKGCLGTNNFDTNSRLCMSSAVSAYSLCLGSDGPPACYEDLDLADCLLIVGSNTAECHPILFNRYRKRHKQGGTNLIVVDPRCTPTAEVADLHLALKPGSDVALLNGLGWLLYQMGYVKKDFIANQTEGFEDWLAIIEDYPPQRTAELTGLAVAELVRAADLIASAQRWLSLWSMGVNQSIQGTAKATSLINLHLLTRQIGLPGCGPFSLTGQPNAMGGRETGGLAHLLPGYRKVIDPQHRADVETIWGLPMGSISPQPGRTAWQMIEGLEQGAVGFLWVAATNPAVSLPDVKRAQAALKRSPFTVLQDAYHPTETTTYAHLLLPAAQWSEKTGTMTNSERRVTLCQAFRQPPGEARADWQIFAEVGRRLGFAFDYTDAAAVFAEYVQVTAGRLCDLSGLSHELLAQAGPQQWPFPAGAEPTTESKRLYTKHHFAYADGRARFQPFHHLGVAEPPDDRYPLVLTVGRLYGHWHTQTRTGRIDKINKLHPSAFVEIHPRDADRYNISEGQAVVIRSRRGEGCFPAKVTTAISPGVLFVPMHWGALWGDRTEANALTHPAACPISGEPELKACAVQIEAASSTFTI
B4: nitrate reductase (NarB) (Synechococcus elongatus PCC 7942 = FACHB-805; K144R) (protein)
chain: MIDTAKTLCPYCGVGCGLEAVPPAQPGRATVRDREGTPIWQIRGDRQHPSSQGMVCVKGATVAESVSKSRLKYPMFRASLDDPFTEISWDEALDRLCDRIQQTQADYGKDGICFYGSGQFQTEDYYIAQRLVKGCLGTNNFDTNSRLCMSSAVSAYSLCLGSDGPPACYEDLDLADCLLIVGSNTAECHPILFNRYRKRHKQGGTNLIVVDPRCTPTAEVADLHLALKPGSDVALLNGLGWLLYQMGYVKKDFIANQTEGFEDWLAIIEDYPPQRTAELTGLAVAELVRAADLIASAQRWLSLWSMGVNQSIQGTAKATSLINLHLLTRQIGLPGCGPFSLTGQPNAMGGRETGGLAHLLPGYRKVIDPQHRADVETIWGLPMGSISPQPGRTAWQMIEGLEQGAVGFLWVAATNPAVSLPDVKRAQAALKRSPFTVLQDAYHPTETTTYAHLLLPAAQWSEKTGTMTNSERRVTLCQAFRQPPGEARADWQIFAEVGRRLGFAFDYTDAAAVFAEYVQVTAGRLCDLSGLSHELLAQAGPQQWPFPAGAEPTTESKRLYTKHHFAYADGRARFQPFHHLGVAEPPDDRYPLVLTVGRLYGHWHTQTRTGRIDKINKLHPSAFVEIHPRDADRYNISEGQAVVIRSRRGEGCFPAKVTTAISPGVLFVPMHWGALWGDRTEANALTHPAACPISGEPELKACAVQIEAASSTFTI

Substrate in this data set: O=[N+]([O-])O
Kind of data set: steady-state nitrate reductase assay, Michaelis-Menten fit. Format: biochemical, Synechococcus elongatus. The note with it: saturating reduced ferredoxin (Synechocystis sp. PCC 6803) as electron donor.
Turning to B1, the Km came out at 2.5 ± 0.3 µM.

B2: the Km was found to be 6.0 ± 1.0 µM.

With B3, the Michaelis-Menten constant (Km) is 3.3 ± 0.5 µM.

With B4, the Km came out at 5.7 ± 2.5 µM.
